# Results as given in the supplement of paper PMC10567573.
# B1: SOAT2 (parent)
# chain: SLGKQKVFIIRKSLLDELMEVQHF
# Variants of: B1
# Experiment: protein stability index of a GFP-peptide fusion (GPS, HEK-293T) (PSI 1-6); higher = more stable
# Conditions: c terminus: a fixed tail appended
# 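Note: lentivirally expressed fusions sorted by FACS into six bins by GFP to DsRed ratio, PSI derived from sequencing read proportions per bin multiplied by bin number.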
row,Variant,protein stability index
1,E20G,2.85
2,E20R,2.84
3,E20V,1.83
4,S1T,4.03
5,S1R,1.94
6,S1Q,2.6
7,S1N,2.68
8,L14K,1.69
9,L14V,2.22
10,L14M,2.25
11,L14T,2
12,E17L,2.79
13,E17A,3.06
14,E17P,2.21
15,K12E,2.99
16,K12W,3.49
17,K12N,2.32
18,K12F,3.49
19,V7W,2.34
20,V7A,1.72
21,V7S,1.74
22,V7P,1.49
23,L2D,1.4
24,L2S,3.5

row,Variant,protein stability index
1,L2Q,2.21
2,L2N,2.58
3,S13Y,2.52
4,S13V,1.88
5,S13D,3.49
6,S13C,2.25
7,S13E,2.55
8,S13P,1.99
9,S13N,2.86
10,S13R,2.86
11,I9L,1.21
12,I9W,3.62
13,I9C,1.76
14,I9E,1.76
15,I9P,2.1
16,I9M,2.21
17,H23I,2.72
18,H23D,1.67
19,H23E,1.9
20,H23W,3.71
21,H23A,2.24
22,I10S,1.8
23,I10D,2.41
24,I10V,2.52

row,Variant,protein stability index
1,I10W,1.89
2,I10F,3.02
3,I10G,1.91
4,K6V,1.81
5,K6S,2.46
6,K6I,3.06
7,K6E,2.05
8,K6D,1.67
9,F24N,1.9
10,F24R,2.03
11,Q5K,2.63
12,Q5A,2.54
13,Q5P,2.87
14,Q5E,2.04
15,Q5D,2.01
16,L15I,2.35
17,L15M,2.37
18,L15S,2.23
19,L15A,1.6
20,K4W,2.19
21,K4Q,1.96
22,K4A,1.55
23,K4P,1.74
24,K4L,2.54

row,Variant,protein stability index
1,F8C,2.49
2,F8M,1.58
3,F8V,1.6
4,F8D,2.12
5,F8N,1.5
6,Q22H,1.91
7,V21W,2.46
8,V21P,2.16
9,V21M,1.89
10,V21N,2
11,V21Q,4
12,R11L,2.96
13,R11Q,2.54
14,R11H,2.43
15,R11C,2.61
16,R11S,2.11
17,R11K,1.77
18,G3L,2.29
19,G3C,3.08
20,L18H,1.85
21,D16M,3.67
22,D16E,2.39
23,D16G,2.76
24,D16C,2.63
